How the values were obtained:
recombinant human C5 = biological target: T1, recombinant human C5 (human, UniProt P01031 20-1676); assay: SPR (BIACORE T200), ratio of kd of condition (2) and (1)
T1 construct: The same entry is used here for C5 in normal human serum in the functional rows; also called hC5; rhC5

[1] = biological target: T2, recombinant MG1-MG2 domain of human C5 beta-chain (human, UniProt P01031 20-225); assay: SPR (BIACORE T200), antibody captured, MG1-MG2 domain injected, pH7.4, 37 degrees C
T2 construct: also called MG1-MG2 domain (1-225) of human C5

B1: 305LO20-SG115 (antibody)
heavy: QVQLVESGGGLVQPGGSLRLSCAASGFTVHSSYYMAWVRQAPGKGLEWVGAIFTGSGAEYKAEWAKGRVTISKDTSKNQVVLTMTNMDPVDTATYYCASDAGYDYPTHAMHYWGQGTLVTVSSASTKGPSVFPLAPSSKSTSGGTAALGCLVKDYFPEPVTVSWNSGALTSGVHTFPAVLQSSGLYSLSSVVTVPSSSLGTQTYICNVNHKPSNTKVDKKVEPKSCDKTHTCPPCPAPELRRGPKVFLFPPKPKDTLMISRTPEVTCVVVDVSHEDPEVKFNWYVDGVEVHNAKTKPREEQYNSTYRVVSVLTVLHQDWLNGKEYKCKVSNKGLPSSIEKTISKAKGQPREPQVYTLPPSREEMTKNQVSLTCLVKGFYPSDIAVEWESNGQPENNYKTTPPVLDSDGSFFLYSKLTVDKSRWQQGNVFSCSVLHEALHAHYTRKELSLSP
light: DIQMTQSPSSLSASVGDRVTITCRASQGISSSLAWYQQKPGQAPRLLIYGASETESGVPSRFSGSGSGTDFTLTISSLQPEDFATYYCQNTKVGSSYGNTFGGGTKVEIKRTVAAPSVFIFPPSDEQLKSGTASVVCLLNNFYPREAKVQWKVDNALQSGNSQESVTEQDSKDSTYSLSSTLTLSKADYEKHKVYACEVTHQGLSSPVTKSFNRGEC
Q: B1 was tested. Which “pH dependency (ratio of dissociation rate at pH5.8 to that at pH7.4)” value (recombinant human C5) did it give?
A: 17.5

B2: 305LO23-SG115 (antibody, V domains shown)
VH: QVQLVESGGGLVQPGGSLRLSCAASGFTVHSSYYMAWVRQAPGKGLEWVSGIFTGSGATYKAEWAKGRVTISKDTSKNQVVLTMTNMDPVDTATYYCASDAGYDYPTHAMHYWGQGTLVTVSS
VL: DIQMTQSPSSLSASVGDRVTITCRASQGISSSLAWYQQKPGQAPRLLIYGASTTQSGVPSRFSGSGSGTDFTLTISSLQPEDFATYYCQNTKVGSSYGNTFGGGTKVEIKR
Q: Which “pH dependency (ratio of dissociation rate at pH5.8 to that at pH7.4)” value (recombinant human C5) does the source give for B2 here?
A: 20.2

B3: 305LO20-SG422 (antibody)
heavy: QVQLVESGGGLVQPGGSLRLSCAASGFTVHSSYYMAWVRQAPGKGLEWVGAIFTGSGAEYKAEWAKGRVTISKDTSKNQVVLTMTNMDPVDTATYYCASDAGYDYPTHAMHYWGQGTLVTVSSASTKGPSVFPLAPCSRSTSGGTAALGCLVKDYFPEPVTVSWNSGALTSGVHTFPAVLQSSGLYSLSSVVTVPSSSLGTKTYTCNVDHKPSNTKVDKRVESKYGPPCPPCPAPEFRRGPKVFLFPPKPKDTLMISRTPEVTCVVVDVSHEDPEVKFNWYVDGVEVHNAKTKPREEQYNSTYRVVSVLTVLHQDWLNGKEYKCKVSNKGLPSSIEKTISKAKGQPREPQVYTLPPSREEMTKNQVSLTCLVKGFYPSDIAVEWESNGQPENNYKTTPPVLDSDGSFFLYSKLTVDKSRWQQGNVFSCSVLHEALHAHYTRKELSLSP
light: DIQMTQSPSSLSASVGDRVTITCRASQGISSSLAWYQQKPGQAPRLLIYGASETESGVPSRFSGSGSGTDFTLTISSLQPEDFATYYCQNTKVGSSYGNTFGGGTKVEIKRTVAAPSVFIFPPSDEQLKSGTASVVCLLNNFYPREAKVQWKVDNALQSGNSQESVTEQDSKDSTYSLSSTLTLSKADYEKHKVYACEVTHQGLSSPVTKSFNRGEC
Q: Which “pH dependency (ratio of dissociation rate at pH5.8 to that at pH7.4)” value (recombinant human C5) does the source give for B3 here?
A: 17.3

B4: eculizumab-F760G4 (antibody, human IgG4 S228P, kappa)
heavy: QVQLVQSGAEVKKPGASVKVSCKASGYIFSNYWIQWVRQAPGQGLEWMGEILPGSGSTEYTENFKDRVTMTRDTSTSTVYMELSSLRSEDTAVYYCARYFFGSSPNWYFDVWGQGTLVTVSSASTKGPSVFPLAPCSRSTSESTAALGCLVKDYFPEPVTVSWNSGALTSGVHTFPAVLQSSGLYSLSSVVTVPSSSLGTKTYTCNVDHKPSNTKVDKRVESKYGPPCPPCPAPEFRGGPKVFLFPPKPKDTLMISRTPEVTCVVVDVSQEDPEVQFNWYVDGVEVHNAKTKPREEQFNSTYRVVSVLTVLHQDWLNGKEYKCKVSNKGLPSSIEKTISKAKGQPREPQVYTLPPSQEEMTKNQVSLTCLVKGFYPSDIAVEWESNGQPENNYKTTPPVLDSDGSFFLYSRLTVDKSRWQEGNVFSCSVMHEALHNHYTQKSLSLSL
light: DIQMTQSPSSLSASVGDRVTITCGASENIYGALNWYQQKPGKAPKLLIYGATNLADGVPSRFSGSGSGTDFTLTISSLQPEDFATYYCQNVLNTPLTFGQGTKVEIKRTVAAPSVFIFPPSDEQLKSGTASVVCLLNNFYPREAKVQWKVDNALQSGNSQESVTEQDSKDSTYSLSSTLTLSKADYEKHKVYACEVTHQGLSSPVTKSFNRGEC
Q: Does B4 bind [1]?
A: no binding (tested: 20 nM and 40 nM)

From patent EP4785956A2 (CHUGAI SEIYAKU KABUSHIKI KAISHA, dated 2026)
